{
  "source": "patent US7410774B1",
  "about": "“Compounds modulating sister chromatid separation and method for identifying same” (Boehringer Ingelheim International GmbH, priority 1999, dated 2008)",
  "target": "T1, Scc1p tagged with multiple HA epitopes, chromatin-bound (chromatin of nocodazole-arrested yeast), Q12158",
  "T1 chain": "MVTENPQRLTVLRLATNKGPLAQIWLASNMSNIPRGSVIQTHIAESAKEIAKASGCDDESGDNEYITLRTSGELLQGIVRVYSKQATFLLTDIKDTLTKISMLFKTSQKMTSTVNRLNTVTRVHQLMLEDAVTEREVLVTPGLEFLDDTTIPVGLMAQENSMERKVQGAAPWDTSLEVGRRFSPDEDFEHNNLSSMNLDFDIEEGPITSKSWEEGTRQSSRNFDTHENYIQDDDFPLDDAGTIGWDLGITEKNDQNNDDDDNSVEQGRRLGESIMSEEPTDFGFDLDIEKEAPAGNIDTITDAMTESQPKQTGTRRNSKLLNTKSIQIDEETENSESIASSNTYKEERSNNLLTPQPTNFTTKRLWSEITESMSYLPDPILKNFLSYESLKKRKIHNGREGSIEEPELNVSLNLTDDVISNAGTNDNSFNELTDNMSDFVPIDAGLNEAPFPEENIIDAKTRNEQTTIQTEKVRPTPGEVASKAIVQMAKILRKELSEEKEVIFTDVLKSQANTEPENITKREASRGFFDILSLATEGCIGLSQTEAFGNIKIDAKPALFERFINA",
  "data": [
    {"protein": "Esp1 mutant C1531A tagged with a FLAG epitope, overexpressed in yeast (protein) MMVKQEEPLNEISPNTPMTSKSYLLNDTLSKVHHSGQTRPLTSVLSGDASSNSIGILAMHNNIIRDFTKIASNNIDLAIEDITTVDHSLNSIYSLLKSHHMWGHINSTVKQHLMIIVKLINNNALGLASSEIIFLFNETNLFQAHSLKNILLADFSTWNDYYLSNLKILALQIILKRKLVDEYLPHILELFSHDKRYLLKDPNLKAHALTKIVLSFFSVTTSCKVLFGLKFLQYIKQFKLPFKKFISNITVECFSKNLLHKNYLEMGPNKIYLNSFYLSYSMLYDGLDKIMLLDILSYEETTEVQRAIKSKKEFNEYCNMSENRLLWSCISVDDLNVILENATNFLQNKGKHISATLKCLVCLWSTIRLEGLPKNKDILRQFDCTVIYINSNIKSINDESAAALLSELLGVLSEICIDYKEPKRLSNIISVLFNASVLFKSHSFLLKTANLEISNVLISNDSKTSHRTILKFEKFISSAQSAQKKIEIFSCLFNVYCMLRNDTLSFVFDFCQNAFIHCFTRLKITKFIEFSNSSEIMLSVLYGNSSIENIPSENWSQLSRMIFCSLRGIFDLDPLELNNTFDKLHLLNKYELLIRIVYLLNLDMSKHLTTNLSKITKLYINKWLQKSDEKAERISSFEMDFVKMLLCYLNFNNFDKLSIELSLCIKSKEKYYSSIVPYADNYLLEAYLSLYMIDDALMMKNQLQKTMNLSTAKIEQALLHASSLINVHLWDSDLTAFQIYFGKTLPAMKPELFDINNDHNLPMSLYIKVILLNIKIFNESAKLNIKAGNVISAVIDCRKAQNLALSLLKKKNKLSQGSRLALLKSLSFSFFQLIKIHIRIGSARDCEFYSKELSRIISDLEEPIIVYRCLHFLHRYYMITEQTCLQNITLGKANKAFDYLDAEADITSLTMFLYDNKEFVKLEQSLVLYFGDQLEKTFLPNLWKLHLGKDIDDSICLSEYMPKNVINRVHNMWQKVMSQLEEDPFFKGMFESTLGIPSSLPVIPSTMPNNILKTPSKHSTGLKLCDSPRSSSMTPRGKNIRQKFDRIAAISKLKQMKELLESLKLDTLDNHELSKISSLSSLTLTILSNITSIHNAESSLITNFSLTDLPRHMPLLFDKVLNNIDNKNYREFRVSSLIAPNNISTITESIRVSAAQKDLMESNLNINVITIDFCPITGNLLLSKLEPRRKRRTHLRLPLIRSNSRDLDEVHLSFPEATKKLLSIINESNQTTSVEVTNKIKTREERKSWWTTRYDLDKRMQQLLNNIENSWFNGVQGFFSPEVVDNSLFEKFKDKFYEILHQNLPSRKLYGNPAMFIKVEDWVIELFLKLNPQEIDFLSKMEDLIYFVLDILLFHGEENAYDEIDFSMLHVQLEEQIKKYRATMTTNSIFHTFLVVSSSCHLFPWECLSFLKDLSITRVPSYVCLNKLLSRFHYQLPLQVTIEDNISMILNPNGDLSRTESKFKGMFQKIIDAKPSSQLVMNEKPEEETLLKMLQNSNLFVYIGHGGGEQYVRSKEIKKCTKIAPSFLLGASSAAMKYYGKLEPTGTIYTYLLGGCPMVLGNLWDVTDKDIDKFSEELFEKMGFRCNTDDLNGNSLSVSYAVSKSRGVCHLRYLNGAAPVIYGLPIKFVS", "values": [
      {"measurement": "Scc1 cleavage activity in yeast extracts", "value": "Both mutations completely abolished the proteolytic activity in yeast extracts after overproduction of the proteins"}
    ]},
    {"protein": "Wildtype Esp1 tagged with a FLAG epitope, overexpressed in yeast (protein) MMVKQEEPLNEISPNTPMTSKSYLLNDTLSKVHHSGQTRPLTSVLSGDASSNSIGILAMHNNIIRDFTKIASNNIDLAIEDITTVDHSLNSIYSLLKSHHMWGHINSTVKQHLMIIVKLINNNALGLASSEIIFLFNETNLFQAHSLKNILLADFSTWNDYYLSNLKILALQIILKRKLVDEYLPHILELFSHDKRYLLKDPNLKAHALTKIVLSFFSVTTSCKVLFGLKFLQYIKQFKLPFKKFISNITVECFSKNLLHKNYLEMGPNKIYLNSFYLSYSMLYDGLDKIMLLDILSYEETTEVQRAIKSKKEFNEYCNMSENRLLWSCISVDDLNVILENATNFLQNKGKHISATLKCLVCLWSTIRLEGLPKNKDILRQFDCTVIYINSNIKSINDESAAALLSELLGVLSEICIDYKEPKRLSNIISVLFNASVLFKSHSFLLKTANLEISNVLISNDSKTSHRTILKFEKFISSAQSAQKKIEIFSCLFNVYCMLRNDTLSFVFDFCQNAFIHCFTRLKITKFIEFSNSSEIMLSVLYGNSSIENIPSENWSQLSRMIFCSLRGIFDLDPLELNNTFDKLHLLNKYELLIRIVYLLNLDMSKHLTTNLSKITKLYINKWLQKSDEKAERISSFEMDFVKMLLCYLNFNNFDKLSIELSLCIKSKEKYYSSIVPYADNYLLEAYLSLYMIDDALMMKNQLQKTMNLSTAKIEQALLHASSLINVHLWDSDLTAFQIYFGKTLPAMKPELFDINNDHNLPMSLYIKVILLNIKIFNESAKLNIKAGNVISAVIDCRKAQNLALSLLKKKNKLSQGSRLALLKSLSFSFFQLIKIHIRIGSARDCEFYSKELSRIISDLEEPIIVYRCLHFLHRYYMITEQTCLQNITLGKANKAFDYLDAEADITSLTMFLYDNKEFVKLEQSLVLYFGDQLEKTFLPNLWKLHLGKDIDDSICLSEYMPKNVINRVHNMWQKVMSQLEEDPFFKGMFESTLGIPSSLPVIPSTMPNNILKTPSKHSTGLKLCDSPRSSSMTPRGKNIRQKFDRIAAISKLKQMKELLESLKLDTLDNHELSKISSLSSLTLTILSNITSIHNAESSLITNFSLTDLPRHMPLLFDKVLNNIDNKNYREFRVSSLIAPNNISTITESIRVSAAQKDLMESNLNINVITIDFCPITGNLLLSKLEPRRKRRTHLRLPLIRSNSRDLDEVHLSFPEATKKLLSIINESNQTTSVEVTNKIKTREERKSWWTTRYDLDKRMQQLLNNIENSWFNGVQGFFSPEVVDNSLFEKFKDKFYEILHQNLPSRKLYGNPAMFIKVEDWVIELFLKLNPQEIDFLSKMEDLIYFVLDILLFHGEENAYDEIDFSMLHVQLEEQIKKYRATMTTNSIFHTFLVVSSSCHLFPWECLSFLKDLSITRVPSYVCLNKLLSRFHYQLPLQVTIEDNISMILNPNGDLSRTESKFKGMFQKIIDAKPSSQLVMNEKPEEETLLKMLQNSNLFVYIGHGGGEQYVRSKEIKKCTKIAPSFLLGCSSAAMKYYGKLEPTGTIYTYLLGGCPMVLGNLWDVTDKDIDKFSEELFEKMGFRCNTDDLNGNSLSVSYAVSKSRGVCHLRYLNGAAPVIYGLPIKFVS", "values": [
      {"measurement": "Scc1 cleavage activity in yeast extracts", "value": "Wild type Esp1 overexpressed to a similar level caused complete cleavage of the Scc1 substrate"}
    ]}
  ]
}
